Results reported in IntAct's records for PubMed 19556541.

B1: Polycystin-2 (Homo sapiens), Q13563-1 (parent)
chain: MVNSSRVQPQQPGDAKRPPAPRAPDPGRLMAGCAAVGASLAAPGGLCEQRGLEIEMQRIRQAAARDPPAGAAASPSPPLSSCSRQAWSRDNPGFEAEEEEEEVEGEEGGMVVEMDVEWRPGSRRSAASSAVSSVGARSRGLGGYHGAGHPSGRRRRREDQGPPCPSPVGGGDPLHRHLPLEGQPPRVAWAERLVRGLRGLWGTRLMEESSTNREKYLKSVLRELVTYLLFLIVLCILTYGMMSSNVYYYTRMMSQLFLDTPVSKTEKTNFKTLSSMEDFWKFTEGSLLDGLYWKMQPSNQTEADNRSFIFYENLLLGVPRIRQLRVRNGSCSIPQDLRDEIKECYDVYSVSSEDRAPFGPRNGTAWIYTSEKDLNGSSHWGIIATYSGAGYYLDLSRTREETAAQVASLKKNVWLDRGTRATFIDFSVYNANINLFCVVRLLVEFPATGGVIPSWQFQPLKLIRYVTTFDFFLAACEIIFCFFIFYYVVEEILEIRIHKLHYFRSFWNCLDVVIVVLSVVAIGINIYRTSNVEVLLQFLEDQNTFPNFEHLAYWQIQFNNIAAVTVFFVWIKLFKFINFNRTMSQLSTTMSRCAKDLFGFAIMFFIIFLAYAQLAYLVFGTQVDDFSTFQECIFTQFRIILGDINFAEIEEANRVLGPIYFTTFVFFMFFILLNMFLAIINDTYSEVKSDLAQQKAEMELSDLIRKGYHKALVKLKLKKNTVDDISESLRQGGGKLNFDELRQDLKGKGHTDAEIEAIFTKYDQDGDQELTEHEHQQMRDDLEKEREDLDLDHSSLPRPMSSRSFPRSLDDSEEDDDEDSGHSSRRRGSISSGVSYEEFQVLVRRVDRMEHSIGSIVSKIDAVIVKLEIMERAKLKRREVLGRLLDGVAEDERLGRDSEIHREQMERLVREELERWESDDAASQISHGLGTPVGLNGQPRPRSSRPSSSQSTEGMEGAGGNGSSNVHV

Variants of: B1
Settings: with pkd1_human PKD1, P98161
Chain of pkd1_human PKD1, P98161 (P98161 whole entry, looked up): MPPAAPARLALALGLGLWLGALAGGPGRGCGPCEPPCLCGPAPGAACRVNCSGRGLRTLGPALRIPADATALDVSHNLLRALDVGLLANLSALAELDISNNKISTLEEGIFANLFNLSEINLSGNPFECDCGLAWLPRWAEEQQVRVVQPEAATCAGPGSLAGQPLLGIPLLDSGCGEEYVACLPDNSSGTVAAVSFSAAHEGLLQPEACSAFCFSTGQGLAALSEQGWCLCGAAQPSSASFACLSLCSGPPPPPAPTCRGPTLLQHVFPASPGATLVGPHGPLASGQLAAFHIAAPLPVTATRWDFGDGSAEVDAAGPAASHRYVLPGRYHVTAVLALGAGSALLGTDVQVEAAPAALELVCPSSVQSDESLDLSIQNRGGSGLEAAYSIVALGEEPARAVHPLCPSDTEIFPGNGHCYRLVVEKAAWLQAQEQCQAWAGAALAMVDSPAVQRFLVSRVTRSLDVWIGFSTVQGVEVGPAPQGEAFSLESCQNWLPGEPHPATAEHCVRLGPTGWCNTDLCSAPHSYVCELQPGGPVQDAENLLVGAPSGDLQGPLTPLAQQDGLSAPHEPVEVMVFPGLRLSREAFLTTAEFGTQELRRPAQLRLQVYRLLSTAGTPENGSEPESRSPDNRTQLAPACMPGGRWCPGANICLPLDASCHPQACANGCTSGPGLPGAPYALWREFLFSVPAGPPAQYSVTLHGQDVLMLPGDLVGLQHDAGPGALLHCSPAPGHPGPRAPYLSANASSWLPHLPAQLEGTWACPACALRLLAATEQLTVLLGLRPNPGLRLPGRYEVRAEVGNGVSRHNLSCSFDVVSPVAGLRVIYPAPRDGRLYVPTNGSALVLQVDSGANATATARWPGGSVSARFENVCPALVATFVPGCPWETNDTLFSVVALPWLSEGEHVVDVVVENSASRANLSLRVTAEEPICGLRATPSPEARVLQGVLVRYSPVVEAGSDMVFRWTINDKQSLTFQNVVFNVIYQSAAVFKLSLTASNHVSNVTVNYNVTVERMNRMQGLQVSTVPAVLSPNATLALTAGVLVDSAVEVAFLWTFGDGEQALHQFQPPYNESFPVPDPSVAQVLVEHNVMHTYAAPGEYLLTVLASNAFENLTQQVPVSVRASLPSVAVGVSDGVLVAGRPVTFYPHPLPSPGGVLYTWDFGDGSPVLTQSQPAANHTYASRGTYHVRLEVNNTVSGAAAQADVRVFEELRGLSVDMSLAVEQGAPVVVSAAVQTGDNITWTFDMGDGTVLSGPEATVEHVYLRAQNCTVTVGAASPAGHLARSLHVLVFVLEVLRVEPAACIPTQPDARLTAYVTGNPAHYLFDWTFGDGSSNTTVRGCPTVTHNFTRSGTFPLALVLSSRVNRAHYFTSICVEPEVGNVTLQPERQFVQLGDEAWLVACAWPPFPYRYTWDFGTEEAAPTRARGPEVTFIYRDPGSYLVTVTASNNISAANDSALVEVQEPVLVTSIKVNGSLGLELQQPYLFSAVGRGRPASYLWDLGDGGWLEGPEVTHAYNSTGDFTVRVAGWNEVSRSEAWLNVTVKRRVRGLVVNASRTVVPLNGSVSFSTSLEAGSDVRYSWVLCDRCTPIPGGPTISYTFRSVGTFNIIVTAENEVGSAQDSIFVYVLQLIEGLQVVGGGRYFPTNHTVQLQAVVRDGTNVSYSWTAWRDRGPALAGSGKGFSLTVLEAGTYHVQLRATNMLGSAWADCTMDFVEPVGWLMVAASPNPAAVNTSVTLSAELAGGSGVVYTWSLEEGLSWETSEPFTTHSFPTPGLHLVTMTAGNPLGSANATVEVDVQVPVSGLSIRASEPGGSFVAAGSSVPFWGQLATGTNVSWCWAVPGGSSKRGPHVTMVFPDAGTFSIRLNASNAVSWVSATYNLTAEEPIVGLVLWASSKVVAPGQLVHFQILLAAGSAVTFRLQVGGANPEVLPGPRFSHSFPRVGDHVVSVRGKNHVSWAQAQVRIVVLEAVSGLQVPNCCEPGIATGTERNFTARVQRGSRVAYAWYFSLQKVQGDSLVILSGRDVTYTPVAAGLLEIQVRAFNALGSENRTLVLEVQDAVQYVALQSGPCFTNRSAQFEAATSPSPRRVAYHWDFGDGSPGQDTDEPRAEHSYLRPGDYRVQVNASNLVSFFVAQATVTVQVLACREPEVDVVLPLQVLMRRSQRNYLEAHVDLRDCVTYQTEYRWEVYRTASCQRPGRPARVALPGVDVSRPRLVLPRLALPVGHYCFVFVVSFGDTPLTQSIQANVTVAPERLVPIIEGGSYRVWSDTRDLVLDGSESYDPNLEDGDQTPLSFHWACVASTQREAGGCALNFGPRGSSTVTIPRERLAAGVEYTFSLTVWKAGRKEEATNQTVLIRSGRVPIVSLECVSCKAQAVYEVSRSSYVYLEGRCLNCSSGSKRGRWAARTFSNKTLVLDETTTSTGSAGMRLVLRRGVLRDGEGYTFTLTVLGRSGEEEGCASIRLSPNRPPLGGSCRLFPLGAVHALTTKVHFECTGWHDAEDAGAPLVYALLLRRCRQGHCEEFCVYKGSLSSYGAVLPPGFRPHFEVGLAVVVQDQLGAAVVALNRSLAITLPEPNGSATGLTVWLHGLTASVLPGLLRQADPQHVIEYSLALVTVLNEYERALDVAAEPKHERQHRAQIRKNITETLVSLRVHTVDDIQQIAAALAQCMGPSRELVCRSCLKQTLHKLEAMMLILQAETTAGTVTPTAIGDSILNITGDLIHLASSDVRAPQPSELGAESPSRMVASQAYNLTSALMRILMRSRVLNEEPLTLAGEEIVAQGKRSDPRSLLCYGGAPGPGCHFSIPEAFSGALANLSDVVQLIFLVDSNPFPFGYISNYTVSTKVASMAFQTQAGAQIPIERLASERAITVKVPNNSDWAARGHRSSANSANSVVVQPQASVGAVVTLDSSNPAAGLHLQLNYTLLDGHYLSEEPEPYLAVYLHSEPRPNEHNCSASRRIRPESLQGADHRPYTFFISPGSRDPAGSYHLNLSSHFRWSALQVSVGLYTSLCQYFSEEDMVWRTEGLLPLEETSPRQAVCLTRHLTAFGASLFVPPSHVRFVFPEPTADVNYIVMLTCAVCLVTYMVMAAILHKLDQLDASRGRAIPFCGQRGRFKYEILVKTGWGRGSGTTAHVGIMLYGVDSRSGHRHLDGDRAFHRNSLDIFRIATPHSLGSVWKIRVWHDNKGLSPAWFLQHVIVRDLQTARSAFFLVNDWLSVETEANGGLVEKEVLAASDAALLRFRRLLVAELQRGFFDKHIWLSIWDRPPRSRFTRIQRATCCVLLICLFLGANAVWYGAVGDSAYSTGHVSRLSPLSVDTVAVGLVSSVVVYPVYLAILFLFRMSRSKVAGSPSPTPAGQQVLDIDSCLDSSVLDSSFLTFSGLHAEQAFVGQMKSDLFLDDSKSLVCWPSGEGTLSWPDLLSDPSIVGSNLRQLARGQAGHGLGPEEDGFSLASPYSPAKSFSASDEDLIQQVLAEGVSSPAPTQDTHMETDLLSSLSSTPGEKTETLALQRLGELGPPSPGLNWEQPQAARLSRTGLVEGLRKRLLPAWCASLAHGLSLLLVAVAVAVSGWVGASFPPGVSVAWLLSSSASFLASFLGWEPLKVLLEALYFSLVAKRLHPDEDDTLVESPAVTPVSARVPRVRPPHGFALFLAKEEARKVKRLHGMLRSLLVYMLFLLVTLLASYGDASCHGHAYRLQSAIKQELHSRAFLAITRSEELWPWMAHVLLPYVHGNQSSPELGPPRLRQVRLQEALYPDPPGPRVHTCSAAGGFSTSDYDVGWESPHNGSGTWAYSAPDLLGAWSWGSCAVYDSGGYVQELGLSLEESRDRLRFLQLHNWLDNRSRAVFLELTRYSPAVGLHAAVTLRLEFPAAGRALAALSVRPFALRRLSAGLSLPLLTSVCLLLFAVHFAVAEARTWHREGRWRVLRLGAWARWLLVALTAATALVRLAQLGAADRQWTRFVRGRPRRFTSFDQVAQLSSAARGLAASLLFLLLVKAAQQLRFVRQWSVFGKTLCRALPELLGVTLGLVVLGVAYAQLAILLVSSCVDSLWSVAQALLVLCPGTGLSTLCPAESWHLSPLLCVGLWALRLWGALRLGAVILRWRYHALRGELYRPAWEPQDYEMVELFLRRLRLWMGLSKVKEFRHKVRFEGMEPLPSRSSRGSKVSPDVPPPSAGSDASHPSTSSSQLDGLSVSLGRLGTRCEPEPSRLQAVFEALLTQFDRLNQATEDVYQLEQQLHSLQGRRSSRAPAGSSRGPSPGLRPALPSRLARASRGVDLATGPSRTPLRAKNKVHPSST

**Q.** How did the “effect of a mutation on the interaction” value turn out when L842A;V846A;M849A;I860A;V863A;L867A was run?
**A.** Its value is “disrupting interaction strength”.
